Test results published in the domain aggregation screens of Martell et al. (2025).

Experiment: soluble fraction after stress (log2 fold change); higher = more stays soluble; pooled small domains, quantitative proteomics
Conditions: stress: pH 4
Outline: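 After pH 4 stress, pooled custom libraries of small protein domains were quantified with high-throughput quantitative proteomics. Aggregation propensity is taken from the fold change in each domain's soluble amount following the acid stress. The scale is log2, where higher values mean more stayed soluble.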

Sequence | soluble fraction (log2)
HMIKEVEYSQFLQMTDQGEVGKVEINEQENSILFTDKAEKNIYKTGMVEDAELSMRLYEAGIPFSGQI | -2.29
HMVRVSELAIEPRLVVEETATGFVGAVVRYANGLIELEDRHGAVRTFPLGPGYLVDGRPVSLVKPT | -0.35
HMDLDPVEKLHLLSQLYVGQLKGSFVVKEKNQKTTIIGEVRELSHQTLSIRTNEGYRLIEVADILEIRLWE | -0.362
HMAEVHVDGVTYQFSNPEQAVKFARKIAKELGLKVEVHGETVHVK | 0.0901
HMGNRQEQVRIIRDLWRQLADAGQPVPAKHLTLDLDALDATQLTKLEDQAHGWLAKLSAQADLADAA | 0.22
HMFAAIFADDSGFTTRSKRFGPYVEEIAADWQAVKQLSDEDAKQALVPLVKKIELALSTLQQFVSSV | -0.405
HMDFYPARVKWFNKSKGFGFANIFKSNDDIFLHIETLKRSGLSDLETGEAIVLTVTEGPRGKMADTILTWD | -0.411
HMHTTIIVASRDIAAGSVLTSHDLSSVAWVGGAVPKGSYTAADLAVGKTAFTAFQQGEPILESRLAS | 0.317
HMAENPAYTKGVVNRLYKIRATPYYSYSYNVDQKTYEGRGKQYGEYENLHIGDTITVYYQRSNPSNSEA | -0.112
HMKTLDAFFDQARDAYKKLKKDGDIDNLKVLRNQLQTVRETQGDAVRKKSKEEYRRLVDIIDDIDGLLAAF | -0.154
HMSIQQEATGNRIRELLLNNGYTVKDIQEVMGFENPQAVYKWLSGKSLPNLDNLLILSKVLHTSIEDILV | -1.09
HMETTEELISKTVPISYADMAALTGILDGVKSARGDIQVDDRTSTIIIHDIQSSIDEMMRLIKILD | -1.13
HMKIERKGDESYLSFVERATSALSDGLIDYQQWGRAVVGEDLYSEENTRRIAKFFAQFIQNLEND | -1.6
HMNIMAQDWISSPMGPISFKSNQHGLVKIGWGEVPRENTEQPNLEFTRKWLVDYFEGKASPLPYF | -1.55
HMHDPRLPLPGTLLAREFQGRDIVVKVLDNGFEFDGRRYKSLSAIAQEVTGSKWNGFLFFGI | -0.0393
HMIEMGNRIRTLRKRRVGSQSEFAEKLDVSVVTISRIENGMTKIDAELLIKMSEVLQVPVNIILGM | -1.7
HMEYFDDEELDRYKGRTSDSFTDDEAEEFREVMMTMHPEEVKAWNRSLILRDVAMPDQIKDDYIMLAG | -2.41
HMVAEPVYGKVTEGPLNVRSAPSTDSEKVDSFSTGKVLTILETLDGWYKVEEGYVSADYVTIIDAAEAASS | -0.538
HMSESKYKMIKNWIKSKILDGTLVPNQKIYSESELMEIFDVSRHTVRLAIGELVSEGYLFKRQGTGTFVTQ | -0.763
HMGGSVYTVQKGDTLWSIAKEQLGSPLRYAEIYDLNKDVIEEAARGRGKKDSSNGHWLVVGTSLQIPEAT | -0.077
HMNVWESVDLRQEQHEAKRRLILKQAALLFADRGFHETTIDQIAEALNVTKPTIYYYIESKEDLLYQVA | -0.369
HMNGYGALVRLGRSRGWVTVEEINDHLPESAVRTAENVQEITEALGRLSIKVFETRPDEDDLLIT | -0.613
HMIQNEITLMLQVNGKLRGQIQVPSDASKEQIEQLAKDSEAAQKALAGASPKKIIVVPGRLVNIV | 0.183
HMDTAEQNWRLRGKLVTLGLNARQIRMALASHAPRYLEDNIAVVERDLAAGKVRNLPAYLLAALREDYRP | -0.147
HMAKRYFVTTGVRVRTKPDTANSEVLTVLDEGSEIDYKGDYNNEWVKINYNGQEAYIAKQYVRSEE | -0.13
HMQQLTDRELEVLRLLAAGLSNNKIGEKLYISATTAKFHVSNIMRKLEVSRRAEAVYAASKRGL | -0.587

Sequence | soluble fraction (log2)
HMSSVEQAILETLSKEHSHLTSLQVFEEIRGRLPAVNQSTVYRALERLVEQGVVSVSDMGTHAAVYE | 0.119
HMTGPSYTTRRVEAAETMMEFLRTFPQAAPFIGDLYVKAQDWPLGEEIGDRLKKMLPPQLQE | -0.451
HMGPLYARVKAIVLARIMGGDWPPGTALPAEMELARALGVSQGTVRKALDALTAEQVVVRRQGSGTYVAE | -0.158
HMEMTGAHLRKKIRAKGFTFQQIADAIGESKQNLSQILSTNNIKTGTLERIAAAMGESVSYF | 0.167
HMITPNQAAVTLKVSTSTLRRWSSDFEPFLSPRKGVKRLYTIEDIATLKRIQGLYKQGMNTAQVQA | -0.0332
HMDHKSALQELLAPRGLQPSYRLVEEAGPAHARVFTSEVSVDGVARGSGTGTTIKMSEQAAAREALASLG | 0.318
HMLPTLSLSVKIYKGEGDIALDLEEMVKAFDQLNFGSYPFSEKGVHGTNIVIRGNDKKHMEEAEDKVRSLT | -0.959
HMDRRFFVAEENYKRLDVFLSERMEEFTRSRIKKLIDEGHVELNGKSAKAGAEIRPGDEVAAEIPEVKE | 0.239
HMNNWRRSLEREVTASLARGDRDIFDGLNRSFEAALITKALEHTGGRRIEAATLLGIGRNTLTRKIQDLGL | -0.79
HMRQPAAVEYSTFLDWVHASQVERVVFEGDTIRGVRVTGEGFVTYSPETDNTALIGELKKSRVQISATAP | 0.311
HMAFEITSAERTRLEDIARKGLTAYTAEWKQLPASEKKALNKTGLQDFLKSMAADADSAREEEA | 0.0412
HMQQPVAYSEFVQSVNDRQIREAQIQGERIVATDNNGNRMTVIWPENDTKLLDELVQNGVLTSIQE | -0.675
HMWSLLVILQLREGGQRFSQLQRAIPDISQRMLTQTLRKLERDGLVSRKVTPSTPPRVDYAITELGH | -0.556
HMLRPEEMIYHEMLDAILDRRLEPGMKLVEEDLAKTFGVSRARIRATFLQLAHDKLINLVPNRGAFVAEP | -0.561
HMNNYEGIVKSVSNSNVYIQVAGRTIGYTISPHTIIMVNGKNVPASELMPGQHVSYTNKGSKLSYININS | 0.205
HMQYIINFEYSGMLLREYLRGVLGLSHGTLTALKKDPLGILLNGEHATVRAVLHAGDRLTLALE | -1.13
HMNDFVTVPDLQGIFYSEAIKKIDKMGLKEGSIQFVNQDKFLPNTVLNQNPKEGTKVSQDSPINLIIS | -0.594
HMDFNNQLKRIRESNGLTQEQLAKILNVSRQSISSWEVGRNFPDLEMIVIISKEFNISLDQLIMG | -1.03
HMGLNLIGLKRSGFAPEEVKAMTRAYMYIFKSAEGNFESRLAKAHEKYKDDALIMEMVEFIDDALKG | -0.227
HMDSISEQIYSIIKEEILLAKRKPGEQINPRKLADEFETSVMPIRDALNQLANEGLVIRKPRVGFFVR | -0.177
HMKKTIIVHVVGEVNTPGIVELNEGARIIDAINGAGGKTEEADMSKINLAYVIEDGSQIYVPSIYE | -1.08
HMSHGYVELKAENNDALISALENHTWFENIKLDPETNLVKAILTKPIEAENLNKMLFEKGIILSHLVKRK | -0.286
HMAIQGVRLYERTLETGDPWLDRPLSTLSTGTRLIILVRRGGDVLIPKGDTVLLAGDTLVINDS | -1.94
HMNLVRQHTDYAFRLLVALSQAPGKPISTRTLASAADVPYQFASKIMQKLHEEGLVESVMGPFGGFRLVQ | -0.419
HMDGTEVTTEPPGAQVEYEGKQFGPTPARIPGLVAGKSLHITLPGYLEVKPKIKAVPKDGEPLSFTLTAI | 0.224
HMAPPTAEFFAHLPAEALSAVRRSVEEGNARGIDEAILRVETLDGEAGRVLRGLAARYEYGRILELTQR | -0.0842

Sequence | soluble fraction (log2)
HMSTVAETVYNEIRDDILYGELQPGVKLKLEALRERYSVGVNTLREVLNRLVASGFVFVEGQKGFRVV | -0.377
HMGTLRPKGTVVFANLPIAADAKEGDMYNISDQFTTTASFKEGAGNVIPAGSNVYRTDDGFWDVL | 0.193
HMAPSIPSGADIRAAREAAGINLRDFARIVDGPGIAIWSRYETGTPIRVKSISPEVWQKVRDFISQHG | 0.228
HMTLYQIGDKVVHPMHGAGVIDSVVQRKVSGQVQEFYLLKLSVGNMVVMVPTDNTGEIGMRP | -0.777
HMNKITIDQAKEIALNHAKLTAEQVSFIRTESEFDDGIEKYNIEFYYNNQKYDYDINAVNGQIIQYDLEG | -0.23
HMQMPLTMATMGEVNKIVKVGGNEETRRFLANLGFVAGAEVVVLSKIGGNVIVNVKDSRVAVNEDMARHIM | -0.692
HMSSADIPFSRFIDDVEAQRVEKVTIDGVNVTGRYRSDGAAFKTIIPSQYDGLVPILRQNKVDITVKDA | 0.41
HMGTSRVQSILFDQSQWTINRAVHWLNTHHFISTKIDKTDKYLRFRQFDPNPDSHHATKRTSQGITFILE | ≥ 0.43
HMLLELINLQVKILENEELKIIGKVIDLENEKNNLLVIELLKDQKKVLVPFVKEIVPLIDIKNNFIMINPP | -0.703
HMGQAVTMLKAGRLLANAKGTGAPVRSLEPGMLLYPTGVKEGTMWEVEDEMGNKGWVNSTLMETA | -0.284
HMNATQLSNTQKQIRTQLLERLSNNPLTVKQLADRMFVPIDTILKEITALIQEQKIIEDKGGKLQIN | 0.168
HMETAADLLAAAKENPARFGILASEGRFGLGYMNDDLLDPDNLVAISREEADDLRGLGVYFHNLD | -0.308
HMTLQEFYARVGGDYNATLSRLPSEALVKKFILKYPGDPSFAQLKDALAAQDWELAFRASHTLKGVAQN | -0.493
HMNLLDYTTLYVTSDGKSVSFGIAGKEIPVSYIAQEAPGTVVIDDTIRIPRKYDMEYILKRFNES | -1.33
HMQEVKVRLKPDYLGEVLIKVISDKGELKAELFVSNSQVRSLLRAYAVEFQNQIRDQGYNFSEINVYR | -0.518
HMENVRKTEWVTISNDKSQTRTTVYFESGNQKLDKHPQIQGFEYQRTYVEGGVKYYLFVEKGTKLDE | 0.0865
HMSTDIPFNIFSQKWNADEIDSIVVENNKIEGKTKDNKKFSTYAPDELLTSLMENHKNPNVIVEFRAP | -0.646
HMALSETIYRLRTEHGLSQGDLAAELDVSRQSISKWETGSSVPELDKLVAMSRLFGVSLDELVLGE | -0.584
HMSENPLTSREIEIVQLLANGKTTKSIAEELHLSNGTIRNYVSIVLDKLNVSNRIEAIRKALDKGWL | -0.0724
HMLSAQEIPVEDIATRDFVLAEDVVSAKKVLLLPKGVDLSWFGSAKKRLVQRLKSEGVTHIRVFA | 0.008
HMGTHPGIDSGIISDILALKKELPTRSAAKIITMLTLAGKMEENSIHVKTVNRILYQYGYTRDTLS | -0.222
HMARGLRPVPSVFGLDVRQATRTLYAAGFQVSIARGSDVRTRPAAGTLLRVGSTVQLEMPRMESA | -0.000244
HMDIVQLSEKINVMKMEIPAQAIGKTVLEVNFRARFDLNIIAIENGGKLVEVIKPDYVFREGDILFLSGS | -1.31
HMDIVGAINKIESMKQDRYLAMHPYSITHSADGYYRTYLPADDGKRKQIKKKSKSDLEKVVIDYWTKRS | ≥ 0.43
